Usually Kd stands for a measure of binding affinity in units of concentration. The term koff denotes the rate constant with which the complex falls apart. A word on the kon: it is the second-order rate constant of association.

The values below come from US20230357340A1 (APRILBIO, published 2023).

The target in experiment [1] is T1, recombinant human IL-18 (human, UniProt Q14116 37-193).
T1 sequence (looked up): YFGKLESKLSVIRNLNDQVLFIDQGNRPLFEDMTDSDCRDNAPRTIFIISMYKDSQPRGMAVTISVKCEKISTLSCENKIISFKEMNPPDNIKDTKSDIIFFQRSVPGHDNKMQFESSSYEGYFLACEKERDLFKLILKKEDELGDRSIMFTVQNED
Kind of experiment: cell-based or functional assay.

Experiment [2] deals with T2, recombinant mouse IL-18 protein (mouse, UniProt P70380 36-192).
T2 sequence (looked up): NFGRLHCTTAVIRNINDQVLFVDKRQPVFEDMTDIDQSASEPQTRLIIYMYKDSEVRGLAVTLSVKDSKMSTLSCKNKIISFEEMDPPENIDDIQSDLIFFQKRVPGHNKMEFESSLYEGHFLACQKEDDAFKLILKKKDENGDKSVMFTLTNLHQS
The experiment is described as follows: cell-based or functional assay.

For experiment [3], the target named is T1, recombinant human IL-18. The experiment is described as follows: SPR KD of this filing compared with a literature BIAcore value (Kim et al. 2000). The protocol:
(§1) Surface Plasmon Resonance (SPR) assay was performed by Wide River Institute of Immunology (Seoul National University, Seoul, KR) to measure the binding affinity, equilibrium dissociation constant (KD), of APB-R3 to recombinant human IL-18 (Prospec) and human serum albumin (Sigma) by using BiaCore™ T200 (GE Healthcare), Sensor Chip CM5 (Cytiva), and HBS-EP+(Cytiva), as a running buffer. APB-R3 was immobilized by using Amine Coupling Kit (GE Healthcare) in pH 4.5 and the analyte of human IL-18 was diluted and prepared at 62.5 nM, 31.3 nM, 15.6 nM, 7.8 nM, 3.9 nM, and 1.95 nM, and the analyte of human serum albumin was diluted and prepared at 1,250 nM, 625 nM, 313 nM, 156 nM, 78 nM, 39 nM, and 19.5 nM. Kinetics between APB-R3 and human IL-18 or human serum albumin was analyzed by 1:1 binding fitting.

Experiment [4] deals with T1, recombinant human IL-18. The experiment is described as follows: SPR, BiaCore T200, APB-R3 amine-coupled on CM5 chip, human IL-18 as analyte, 1:1 fit. The protocol:
as §1
In general terms: In SPR one partner is held on a chip, and binding of the other changes the refractive index at the surface.

The target in the next experiment is T3, human serum albumin (human, UniProt P02768 25-609).
T3 construct: also called HSA; Human serum albumin (Sigma)
T3 sequence (P02768 25-609 limits assumed): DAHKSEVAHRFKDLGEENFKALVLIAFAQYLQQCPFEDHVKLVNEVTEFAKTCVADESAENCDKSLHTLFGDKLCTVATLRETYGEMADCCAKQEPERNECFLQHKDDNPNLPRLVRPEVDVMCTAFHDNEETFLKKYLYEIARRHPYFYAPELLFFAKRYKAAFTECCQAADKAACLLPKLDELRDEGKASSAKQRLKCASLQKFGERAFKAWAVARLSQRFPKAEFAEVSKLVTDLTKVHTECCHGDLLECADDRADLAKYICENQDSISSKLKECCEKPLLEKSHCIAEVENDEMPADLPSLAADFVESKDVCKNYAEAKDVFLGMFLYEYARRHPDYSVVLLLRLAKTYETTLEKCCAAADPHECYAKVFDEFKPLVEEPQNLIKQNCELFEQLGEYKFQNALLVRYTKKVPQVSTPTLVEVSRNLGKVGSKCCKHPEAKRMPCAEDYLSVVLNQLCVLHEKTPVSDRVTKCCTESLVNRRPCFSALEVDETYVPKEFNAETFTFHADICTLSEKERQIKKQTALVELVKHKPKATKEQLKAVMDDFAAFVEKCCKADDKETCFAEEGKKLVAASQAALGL
Kind of experiment: SPR, BiaCore T200, APB-R3 amine-coupled on CM5 chip, human serum albumin as analyte, 1:1 fit. As for the experimental part: as §1

B1: APB-R3 (recombinant fusion protein of anti-serum albumin Fab SL335 and human IL-18BP; heavy chain SL335H-peptide linker-IL-18BP, light chain SL335L) (other)
heavy: QVQLVQSGGGPVKPGGSLRLSCAASGFMFRAYSMNWVRQAPGKGLEWVSSISSSGRYIHYADSVKGRFTISRDNAKNSLYLQMNSLRAEDTAVYYCARETVMAGKALDYWGQGTLVTVSSASTKGPSVFPLAPSSKSTSEGTAALGCLVKDYFPEPVTVSWNSGALTSGVHTFPAVLQSSGLYSLSSVVTVPSSSLGTQTYICNVNHKPSNTKVDKKVEPKSSGSAPAPGSTPVSQTTTAATASVRSTKDPCPSQPPVFPAAKQCPALEVTWPEVEVPLNGTLSLSCVACSRFPNFSILYWLGNGSFIEHLPGRLWEGSTSRERGSTGTQLCKALVLEQLTPALHSTNFSCVLVDPEQVVQRHVVLAQLWAGLRATLPPTQEALPSSHSSPQQQG
light: DIVLTQSPGTLSLSPGETATLSCRASQSVGSNLAWYQQKPGQAPRLLIYGASTGATGVPARFSGSRSGTDFTLTITSLQPEDFATYYCQQYYSFLAKTFGQGTQLEIKRTVAAPSVFIFPPSDEQLKSGTASVVCLLNNFYPREAKVQWKVDNALQSGNSQESVTEQDSKDSTYSLSNTLTLSKADYEKHKVYACEVTHQGLSSPVTKSFNRGES
notes: The IL-18BP part is glycosylated; also called APB-R3 protein
Regarding B1, the “IC50 of inhibition of IL-18-induced IFN-γ production in KG-1 cells” value with recombinant human IL-18 [1] was determined as 0.0419 nM. Moreover, the “IC50 (read off the curve); mouse IL-18-induced IFN-γ secretion by mouse CD4+ T cells” value in experiment [2] is around 0.4 nM. In addition, the “fold higher binding affinity than human IL-18BPa (literature KD 399 pM)” value in the experiment with recombinant human IL-18 [3] is around 6 fold. Further, in the experiment with recombinant human IL-18 [4], the Kd amounted to 0.0609 nM, the koff stood at 2.48e-05 s⁻¹ and the kon came to 406000 M⁻¹ s⁻¹. In the experiment with human serum albumin, this molecule displayed a Kd of 16.8 nM, a koff of 0.00157 s⁻¹ and a kon of 93800 M⁻¹ s⁻¹.
